For one experiment, the system named is human ES cells. To be noted: human ES cells treated with 5-azacytidine; rises from 15%; cited from earlier work.
The test system of experiment [1] is cardiomyocyte markers. In words: Expression of cardiomyocyte markers in ES cell-derived EBs (RT-PCR, immunostaining). It is filed as cell-based, mouse. From the text:
Next, EBs at day 9 were used and analyzed for the expression of various cardiomyocyte-specific genes by RT-PCR and immunostaining. The cardiomyocyte markers used in RT-PCR were Tbx-5, MEF-2c (muscle enhancement factor-2c), Nkx2.5, GATA-4, βMHC (β myosin heavy chain), MLC-2v (myosin light chain-2v), αMHC (α-myosin heavy chain), BNP (brain natriuretic peptide), ANP (atrial natriuretic peptide) and GAPDH (glyceraldehyde-3-phosphate dehydrogenase). The cardiomyocyte markers used in immunostaining were α-actinin, actin, troponin 1-C, MF20 and ANP. […] Further, to study the optimum concentration of G-CSF, G-CSF was added at various concentrations (0.25, 0.75, 2.5, 7.5, 25, 75 ng/ml) to EBs at day 6, followed by RT-PCR to analyze the expression of each cardiomyocyte marker. It should be noted that EBs prepared at two cell densities, H ([…]) and L (5×10^4 cell/ml), were used in this test. […] To confirm a possibility that the promoting effect of G-CSF treatment to induce myocardial differentiation from ES cells would be mediated by the endogenous G-CSF signaling pathway, anti-G-CSF antibody (R&D systems) was added to medium simultaneously with G-CSF treatment and studied for its effect. EBs at day 6 were treated with G-CSF (7.5 ng/mL) in the presence of anti-G-CSF antibody at various concentrations (0, 1, 3, 9 ng/ml) to study the effect of anti-G-CSF antibody using various cardiomyocyte markers. […] To test the proliferation-promoting effect of G-CSF on ES cell-derived cardiomyocytes, EBs at day 6 were used to prepare G-CSF (7.5 ng/mL)-treated and untreated groups and a G-CSF+nocodazole (0.2 μg/mL)-treated group. […] These three groups were tested for various cardiomyocyte markers by RT-PCR.

The subject of a further experiment is G-CSFR expression. In words: G-CSFR expression in EBs derived from ES cells treated with Noggin (RT-PCR, immunostaining). It is filed as cell-based, mouse. The method, then: (§1) In the experiments described below, EB3 cells (kindly provided by Dr. Hitoshi Niwa of Riken, Japan) and R1 cells (kindly provided by Dr. Andrew Nagy of Mount Sinai Hospital, Canada) were used as ES cells. These ES cells were maintained on gelatin-coated plates in Glasgow Minimum Essential Medium (GMEM; Sigma) containing 10% fetal bovine serum, 2 mM L-glutamine, 0.1 mM nonessential amino acid solution, 1 mM sodium pyruvate, 0.1 mM 2-mercaptoethanol and 2000 U/mL leukemia inhibitory factor (LIF) (ESGRO; Chemicon).
Suspension culture was performed as follows to form EBs from ES cells. ES cells were cultured for 3 days on gelatin-coated plates in α-MEM medium containing 10% fetal bovine serum, 2 mM L-glutamine, 0.1 mM nonessential amino acid solution, 1 mM sodium pyruvate, 0.1 mM 2-mercaptoethanol, 2000 U/mL leukemia inhibitory factor and 0.15 μg/ml Noggin (Noggin-Fc, R&D). The ES cells were then dispersed into single cells by treatment with a trypsin solution, and further cultured on uncoated Petri dishes using a three-dimensional culture system in the same differentiation medium as used above (except being free from LIF) to form spheroids, from which EBs (embryoid bodies) were induced. […]

Experiment [2] relates to cardiomyocyte markers. In words: Cardiomyocyte marker expression in CMES cells (RT-PCR, immunostaining). The class given is cell-based, common marmoset. Conditions: for expression of cardiomyocyte markers (RT-PCR, FIG. 21b): CMES cells. The method, then: (§2) To test the effect of G-CSF on primate cardiogenesis, common marmoset ES (CMES) cells (#20) (Sasaki et al., Stem Cells 23, 1304-1313 (2005)) were used. CMES cells were maintained on a layer of mitotically inactivated mouse embryonic fibroblasts (MEFs) in Knockout DMEM (GIBCO) medium supplemented with 20% Knockout Serum Replacement (KSR; GIBCO), 1 mM L-glutamine (GIBCO), 0.1 mM MEM nonessential amino acids (GIBCO), 0.1 mM β-mercaptoethanol (2-ME; Sigma), 10 ng/ml fibroblast growth factor (bFGF; Invitrogen) and 10 ng/ml human leukemia inhibitory factor (hLIF; Alomone labs). CMES cells were passaged every 5 days to maintain their undifferentiated state.
(§3) Undifferentiated CMES cells were removed from the MEF feeder layer, dissociated into small colonies with a dissociation solution for human and monkey ES cells (ReproCELL. JAPAN), and then cultured to form EBs in suspension culture using HydroCell culture plates (CellSeed, JAPAN) in medium free from bFGF and hLIF.

The subject of experiment [3] is fetal myocardial proliferation. In words: In vivo effect of G-CSF on cardiogenesis: BrdU immunostaining of fetal heart sections. On the set-up: species or system mouse. The method, then: (§4) At 9.0 days of pregnancy, mice were laparotomized and G-CSF (100 ng/kg) or PBS (phosphate-buffered physiological saline; serving as a control) was directly administered into their uteri. At 9.5 days of pregnancy, the mice were then administered with BrdU (bromodeoxyuridine) by the intraperitoneal route. BrdU is incorporated during DNA synthesis and allows proliferation assessment by immunostaining. At 12.5 days of pregnancy, fetuses were collected to prepare heart sections, which were then analyzed in the same manner as shown for immunostaining in Example 1(2).
Moreover, for quantification of the myocardial proliferation-promoting effect, the BrdU labeling index was calculated by the following equation. It should be noted that wild-type mice were used in this test, which were administered with BrdU at 10.5 days of pregnancy and analyzed at 12.5 days of pregnancy. BrdU labeling index=BrdU positive nuclei/total nuclei×100(%)

The next experiment deals with fetal hearts. In words: Hematoxylin-eosin staining of fetal heart sections after G-CSF administration. Conditions: G-CSF 100 ng/kg into uteri at 9.0 days of pregnancy; fetal hearts at 12.5 days. The class given is in vivo, mouse. On the procedure: as §4
In experiment [4] the test system is fetal myocardial proliferation. In words: In vivo effect of G-CSF on cardiogenesis: Phospho-Histon H3 immunostaining of fetal heart sections. On the set-up: species or system mouse. On the procedure:
G-CSF (2 ng) was directly administered into the uteri of pregnant mice at 9.0 days of pregnancy. At 13.5 days of pregnancy, fetuses were collected to prepare heart sections, which were then immunostained with Phospho-Histon H3. Phospho-Histon H3 is a dye that is specifically stained during the cell proliferation process.
Next, the labeling index was calculated by the following equation. Labeling index=Phospho-Histon H3 positive nuclei/total nuclei×100(%)

The subject of a further experiment is ES cells. In words: Induction test of cardiomyocyte differentiation: autonomously beating EBs / total EBs. It is filed as cell-based, mouse. The method, then: as §1
Namely, on gelatin-coated dishes, ES cells were maintained in an undifferentiated state in the presence of LIF, and suspension culture was started at day 0 in the absence of LIF to initiate differentiation of the ES cells, whereby EBs which had differentiated into cardiomyocytes were obtained at day 9. At days 5, 6, 7 and 8, G-CSF (2.5 ng/ml) was added and studied for its effect on EB formation. This effect was calculated by dividing the number of autonomously beating EBs by the total number of EBs.
Based on the above results, the optimum concentration of G-CSF was determined. The optimum concentration was studied by comparing the values calculated by dividing the number of autonomously beating EBs by the total number of EBs.

In experiment [5] the test system is ES cell-derived cardiomyocytes. In words: BrdU incorporation in ES cell-derived EBs (double immunostaining anti-BrdU / anti-mef2c). It is filed as cell-based, mouse. To be noted: EBs at day 6, G-CSF 2.5 ng/mL, BrdU for 18 hours; vs untreated. The method, then: In addition, EBs at day 6 were used to prepare G-CSF (2.5 ng/mL)-treated and untreated groups, which were then incubated with BrdU for 18 hours.
For orientation: Uptake of a labelled nucleoside into DNA is a usual measure of proliferation.

The test system of experiment [6] is common marmoset ES (CMES) cells. In words: Spontaneous beating of common marmoset ES cell-derived EBs. To be noted: G-CSF 2.5 ng/mL added at 4, 6 or 9 days after EB formation. The class given is cell-based. On the procedure:
as §2, §3
At 4, 6 and 9 days after EB formation, G-CSF (2.5 ng/mL) was added to observe spontaneous beating. The best result was obtained upon addition at 6 days after EB formation, and the difference between G-CSF-treated and untreated groups became evident at 14 days after EB formation.

Turning to `Nc1ncn([C@@H]2O[C@H](CO)[C@@H](O)[C@H]2O)c(=O)n1` [5-azacytidine], the “percentage of troponin I-positive cells (cardiomyocytes) in EBs” value in the experiment on human ES cells is listed as 44%.

On to `COC(=O)Nc1nc2ccc(C(=O)c3cccs3)cc2[nH]1` [Nocodazole, reference compound], for which the “effect on G-CSF-increased expression of cardiomyocyte markers (RT-PCR, FIG. 19)” value in the experiment with cardiomyocyte markers [1] (EBs at day 6, G-CSF 7.5 ng/mL + nocodazole 0.2 μg/mL) was “cancelled the increased expression of the cardiomyocyte markers”.

With Noggin, in the experiment with G-CSFR expression (Noggin(+) group vs Noggin(−) group, EBs at 6 days after EB formation), the “G-CSFR expression in EBs (immunostaining, FIG. 11)” value was “G-CSFR expression is increased”. The “start of G-CSFR expression in EBs (RT-PCR, FIG. 10)” value in the experiment with G-CSFR expression (Noggin(+) group, 0.15 μg/ml Noggin for 3 days) is on record as 5 days after EB formation.

B1: mouse G-CSF: G-CSF of mouse origin used on CMES cells (protein, UniProt P09920 31-208, looked up)
Granulocyte …: VPLVTVSALPPSLPLPRSFLLKSLEQVRKIQASGSVLLEQLCATYKLCHPEELVLLGHSLGIPKASLSGCSSQALQQTQCLSQLHSGLCLYQGLLQALSGISPALAPTLDLLQLDVANFATTIWQQMENLGVAPTVQPTQSAMPAFTSAFQRRAGGVLAISYLQGFLETARLALHHLA
Turning to B1, the “expression of cardiomyocyte markers (RT-PCR, FIG. 21b)” value with cardiomyocyte markers [2] is listed as “strongly enhance the expression of the cardiomyocyte markers”.

B2: G-CSF: hematopoietic factor, differentiation-inducing factor for granulocyte lineage hematopoietic stem cells; agonist for G-CSF receptor (protein, listed as Homo sapiens)
chain: TPLGPASSLPQSFLLKCLEQVRKIQGDGAALQEKLCATYKLCHPEELVLLGHSLGIPWAPLSSCPSQALQLAGCLSQLHSGLFLYQGLLQALEGISPELGPTLDTLQLDVADFATTIWQQMEELGMAPALQPTQGAMPAFASAFQRRAGGVLVASHLQSFLEVSYRVLRHLAQP
Regarding B2, in experiment [3] (G-CSF 100 ng/kg into uteri at 9.0 days of pregnancy, BrdU i.p. at 9.5 days, fetuses collected at 12.5 days, vs PBS), the “fetal myocardial proliferation (BrdU immunostaining, FIG. 4)” value is reported as “promoted fetal myocardial proliferation”. The “BrdU labeling index (FIG. 6)” value in [3] (wild-type mice, BrdU at 10.5 days of pregnancy, analyzed at 12.5 days) was “enhance myocardial proliferation”. For the same molecule, the “heart section morphology (hematoxylin-eosin, FIG. 5a)” value in the experiment with fetal hearts is listed as “extended trabecular layer”. Further, the “fetal myocardial proliferation (Phospho-Histon H3 immunostaining, FIG. 7)” value in experiment [4] (G-CSF 2 ng into uteri at 9.0 days of pregnancy, fetuses collected at 13.5 days) is on record as “enhance fetal myocardial proliferation”. Moreover, the “Phospho-Histon H3 labeling index (FIG. 8)” value in experiment [4] (embryonic days 8.5 to 10.5) is recorded as “strongly enhance myocardial proliferation”. Moreover, in the experiment with ES cells (G-CSF 2.5 ng/ml added at days 5, 6, 7 or 8, result for addition at day 6), the “effect on EB formation (autonomously beating EBs / total EBs, FIG. 14)” value is recorded as “greatest effect on EB formation”. Also, the “optimum timing of G-CSF administration” value in the experiment on ES cells (G-CSF 2.5 ng/ml, days 5, 6, 7 and 8 compared) worked out at 6 days. Further, in the experiment with ES cells (added to EBs at day 6), the “optimum concentration of G-CSF (autonomously beating EBs / total EBs, FIG. 17)” value was 0.75 ng/mL. Further, the “expression of cardiomyocyte markers (RT-PCR and immunostaining, FIG. 15)” value in the experiment with cardiomyocyte markers [1] (EBs at day 9, G-CSF-treated group) was “all the cardiomyocyte markers showed increased expression levels”. Moreover, the “expression of contractile proteins, transcription factors and secretory proteins (RT-PCR, FIG. 16)” value in the experiment on cardiomyocyte markers [1] (G-CSF 0.25 to 25 ng/ml added to EBs at day 6, cell densities H (2×10^3 cell/ml) and L (5×10^4 cell/ml), vs control group) is on record as “increased expression levels”. Also, the “cell proliferation of cardiomyocytes (BrdU labeling index, FIG. 20)” value in experiment [5] is listed as “promote cell proliferation of cardiomyocytes”. Further, in experiment [6], the “effect of G-CSF addition on cardiogenesis (spontaneous beating, FIG. 21a)” value was “highest at 6 days after EB formation”. In addition, the “cardiac troponin I- and Nkx2.5-positive areas (immunostaining, FIG. 21c)” value with cardiomyocyte markers [2] (CMES-derived EBs, G-CSF-treated vs untreated) was “enhanced cardiac troponin I- and Nkx2.5-positive areas”.

B3: human G-CSF: G-CSF of human origin used on CMES cells (protein, UniProt P09919 31-207, looked up)
Granulocyte …: TPLGPASSLPQSFLLKCLEQVRKIQGDGAALQEKLVSECATYKLCHPEELVLLGHSLGIPWAPLSSCPSQALQLAGCLSQLHSGLFLYQGLLQALEGISPELGPTLDTLQLDVADFATTIWQQMEELGMAPALQPTQGAMPAFASAFQRRAGGVLVASHLQSFLEVSYRVLRHLAQP
Consider B3, for which the “expression of cardiomyocyte markers (RT-PCR, FIG. 21b)” value with cardiomyocyte markers [2] is given as “strongly enhance the expression of the cardiomyocyte markers”.

The values above are taken from patent US8252583B2, “Method for inducing differentiation into cardiomyocytes using G-CSF” (Keiichi Fukuda, priority 2007, dated 2012).
